Consider 5 substances from paper PMC2191786.

This experiment concerns the target B7-1 on stably transfected B7-1+ Chinese hamster ovary (CHO) cells (human) (UniProt P33681). Nature of the experiment: ELISA.
Chain of UniProt P33681 (P33681 35-288): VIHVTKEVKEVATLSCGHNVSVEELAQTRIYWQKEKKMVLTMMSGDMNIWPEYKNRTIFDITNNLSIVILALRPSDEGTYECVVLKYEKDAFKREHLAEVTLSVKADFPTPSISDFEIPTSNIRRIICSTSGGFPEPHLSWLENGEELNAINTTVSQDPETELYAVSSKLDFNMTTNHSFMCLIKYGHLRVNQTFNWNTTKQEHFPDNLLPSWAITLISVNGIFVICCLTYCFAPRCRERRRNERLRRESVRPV
As to CTLA4Ig M99A (Fc fusion), the percentage of B7-1 binding activity (of CTLA4Ig) is less than 0.1%. CTLA4Ig P102A (Fc fusion) gave a percentage of B7-1 binding activity (of CTLA4Ig) of 3%.

As for CTLA4Ig P103A (Fc fusion), the percentage of B7-1 binding activity (of CTLA4Ig) was less than 0.1%. As for CTLA4Ig Y100A (Fc fusion), the percentage of B7-1 binding activity (of CTLA4Ig) was 3%. With CTLA4Ig Y104A (Fc fusion), the percentage of B7-1 binding activity (of CTLA4Ig) is less than 0.1%.
